Laboratory results from FireProtDB (doi:10.1006/jmbi.1997.1365).

Settings: Homo sapiens, pH 2.7, Thermal, DSC, glycine 0.05 M, reversible: yes, whole UniProt chain shown

B1: Lysozyme C wild type, P61626 (protein)
chain: MKALIVLGLVLLSVTVQGKVFERCELARTLKRLGMDGYRGISLANWMCLAKWESGYNTRATNYNAGDRSTDYGIFQINSRYWCNDGKTPGAVNACHLSCSALLQDNIADAVACAKRVVRDPQGIRAWVAWRNRCQNRDVRQYVQGCGV
64.9 °C
  heat capacity change of unfolding: 1.58 kcal/mol/K
  unfolding enthalpy (calorimetric): 114 kcal/mol
  unfolding enthalpy (van 't Hoff): 120 kcal/mol
  Tm: 64.9 °C
  heat capacity change of unfolding: 1.58 kcal/mol/K
